From patent publication US20240034772A1 (published 2024)
Where a chain is given by its changes, count along the chain named.

B1: MPE33_S36A (antibody, V domains shown)
VH: QVQLQESGPGLVKPSQTLSLTCTVSGDSISNGAYCWNWVRQPAGKGLEWIGRIYPIGNTNYNPSLKSRVTISLDTSKNQFSLKLASVTAADTAVYYCAREARIFEGYYYYYYGLDVWGQGTTVTVSS
VL: EIVLTQSPATLSLSPGERATLSCRASQTISSYLAWYQQKPGQAPRLLISDVSKRATGIPARFSGSGSGTDFTLTISSLEPEDFAVYYCHQRSNWDTFGQGTKLEIK
B2: MPE33_C38Y (antibody, V domains shown)
VH: B1 VH with A33S, C35Y
VL: B1 VL
B3: MPE33_C38A (antibody, V domains shown)
VH: B1 VH with A33S, C35A
VL: B1 VL
B4: MPE8 (antibody, V domains shown)
VH: EVQLVESGGGLVKPGGSLRLSCAASGFTFSSYSMNWVRQAPGKGLEWVSSISASSSYSDYADSAKGRFTISRDNAKTSLFLQMNSLRAEDTAIYFCARARATGYSSITPYFDIWGQGTLVTVSS
VL: QSVVTQPPSVSGAPGQRVTISCTGSSSNIGAGYDVHWYQQLPGTAPKLLIYDNNNRPSGVPDRFSASKSGTSASLAITGLQAEDEADYYCQSYDRSLSGVFGTGTKVTVL
B5: MPE33_N34S_C38Y (antibody, V domains shown)
VH: B1 VH with N31S, A33S, C35Y
VL: B1 VL
B6: MPE33_N34S (antibody, V domains shown)
VH: B1 VH with N31S, A33S
VL: B1 VL
B7: MPE33_C38S (antibody, V domains shown)
VH: B1 VH with A33S, C35S
VL: B1 VL
B8: MPE33_N34Q (antibody, V domains shown)
VH: B1 VH with N31Q, A33S
VL: B1 VL

Legend:
[1] = molecular target: MPV pre-fusion F protein (conformationally stabilized, CAN97-83 MPV strain) (human metapneumovirus (hMPV), strain …, UniProt Q6WB98 19-489); assay: ELISA
Sequence of MPV pre-fusion F protein (conformationally stabilized, CAN97-83 MPV strain) (Q6WB98 19-489): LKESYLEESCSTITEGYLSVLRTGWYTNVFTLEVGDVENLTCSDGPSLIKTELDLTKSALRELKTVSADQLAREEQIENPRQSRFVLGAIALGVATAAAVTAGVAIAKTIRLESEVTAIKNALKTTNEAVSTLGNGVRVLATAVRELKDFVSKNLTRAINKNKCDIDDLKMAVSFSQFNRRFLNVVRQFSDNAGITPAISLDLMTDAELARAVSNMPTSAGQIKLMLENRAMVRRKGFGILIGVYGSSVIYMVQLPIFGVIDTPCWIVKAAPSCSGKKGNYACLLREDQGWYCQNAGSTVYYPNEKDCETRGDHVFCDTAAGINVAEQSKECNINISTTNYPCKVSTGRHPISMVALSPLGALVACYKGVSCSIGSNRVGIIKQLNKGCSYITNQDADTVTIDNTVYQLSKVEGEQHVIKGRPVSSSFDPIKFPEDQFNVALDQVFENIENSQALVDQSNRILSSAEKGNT

POST = POST (human metapneumovirus (hMPV), strain …, UniProt Q6WB98 19-489); assay: ELISA; post-fusion F
Sequence of POST (Q6WB98 19-489): as above

PRE = PRE (human metapneumovirus (hMPV), strain …, UniProt Q6WB98 19-489); assay: ELISA; pre-fusion F
Sequence of PRE (Q6WB98 19-489): as above

Row | Binder | EC50 [1] [ng/mL] | EC50 (POST) [µg/mL] | EC50 (PRE) [µg/mL]
1 | B1 | 2.31 |  | 
2 | B2 | 2.5 |  | 
3 | B3 | 1.51 |  | 
4 | B4 |  | 769 | 0.0348
5 | B5 | 2.87 |  | 
6 | B6 | 1.56 |  | 
7 | B7 | 2.39 |  | 
8 | B8 | 1.96 |  | 
